Experimental data taken from patent US20050036942A1 (Genentech, published 2005).

T1: murine PSCA (mPSCA) (murine, UniProt P57096 21-95)
T1 construct: also called muPSCA; his Mu PSCA - E. coli
T1 sequence (looked up): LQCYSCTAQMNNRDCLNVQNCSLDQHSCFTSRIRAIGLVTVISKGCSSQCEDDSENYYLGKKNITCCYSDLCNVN


Key:
[1] = target: gD-tagged human PSCA expressed on transfected cells (Herpes Simplex virus; human, UniProt O43653 12-91)
murine PSCA (mPSCA) = target: T1, murine PSCA (mPSCA); experiment: direct ELISA, antigen coated at 1 µg/ml
Protocol: HuPSCA and murine PSCA (mPSCA) were coated overnight at 1 μg/ml onto a microtiter plate (Nunc). The anti-PSCA Mab and controls were added to the antigen-coated wells and incubated at room temperature. Unbound antibody was washed off and a horseradish peroxidase (HRP)-conjugated secondary antibody was added to the wells and incubated with the antibodies at room temperature. OPD substrate solution was finally added and concentrated sulfuric acid was used to stop the reaction. The plate was read at 492 nm using a microtiter plate reader.

Binder | IC50 [1] | binding result (murine PSCA (mPSCA))
anti-PSCA monoclonal antibody 5F2.4H4.1E3 (antibody, V domains shown) VH: QVQVQQPGAELVKPGAPVKLSCKASGYTFTNYWLNWVKQRPGRGLEWIGRIDPSDSEIHYDQKFKDKATLTVDKSSSTAYIQLSSLTSEDSAVYYCALTGIYAMAYWGQGTSVTVSS VL: DIVMTQAAPSVPVTPGESVSISCRSSKSLLHSNGNTYLYWFLQRPGQSPQLLIYRMSNLASGVPDRFSGSGSGTAFTLRISRVEAEDVGVYYCLQHLEYPYTFGGGTKLELKR | 13 nM | –
anti-PSCA monoclonal antibody 6B8.1D7.2B3 (antibody, V domains shown, also called Asc# 2761; #2761) VH: EVQLQQSGPDLEKPGASVKISCKPSGNSFTGYYIHWVKQSHGKSLEWIGRVDPNNGFTSYNQKFKGKAILTVDKSSSTAYMELRSLTSEDSAVYYCVGNFFDSWGQGTTLTVSS VL: not shown | – | no binding
